We go through two molecules from patent publication US9951373B2, “Oplophorus-derived luciferases, novel coelenterazine substrates, and methods of use” (Promega Corporation, priority 2010, dated 2018).

The test system of one experiment is HEK293 cells. In words: Luminescence of luciferases in lysed HEK293 cells (codon optimization). The format is cell-based, human. As to conditions: normalized. The procedure:
Codon optimized versions of IV (“IV opt” (SEQ ID NO: 22) and “IV optB” (SEQ ID NO: 23)) and 9B8 (“9B8 opt” (SEQ ID NO: 24) and “9B8 optB” (SEQ ID NO: 25)) were generated and cloned into pF4Ag by methods known in the art. HEK293 cells were plated in 96-well plates at 15,000 cells/well and grown overnight at 37° C. The following day, the cells were transiently transfected in 6 well replicates using TRANSIT®-LT1 Transfection Reagent (Mirus Bio) with 100 ng of plasmid DNA encoding the codon optimized versions in pF4Ag and grown overnight at 37° C. HEK293 cells were also transfected with either pGL4.13 (Luc2/SV40) (Paguio et al., “pGL4 Vectors: A New Generation of Luciferase Reporter Vectors” Promega Notes, 89:7-10 (2005)) or pGL4.73 (hRL/SV40) (Id.) to normalize for differences in transfection efficiency. Ten ng/transfection or 10% of the total DNA transfected was used.
The OgLuc variants had higher luminescence compared to Luc2 and hRL.

Experiment [1] can be described thus: Thermal stability of OgLuc variants at 60° C. The format is physicochemical. To be noted: luminescence at start of incubation (t=0), PBI-3939. The protocol:
Aliquots were removed at different time-points and placed on dry ice to freeze the samples. […] Luminescence was measured on a GLOMAX® luminometer (Promega Corp.).
The thermal stability of the variants at 60° C. was examined as described above, except the assay buffer contained 100 mM MES pH 6.0 instead of HEPES.

The nature of experiment [2]: Brightness of purified OgLuc variant compared to firefly luciferase. The format is biochemical. The protocol: The 9B8 OgLuc variant was overexpressed and purified as described in Example 33. Reactions between diluted enzyme and substrate were performed using the following 2× buffer/assay reagent: 100 mM MES pH 6.0, 1 mM CDTA, 150 mM KCl, 35 mM thiourea, 2 mM DTT, 0.25% TERGITOL® NP-9 (v/v), 0.025% MAZU® DF 204, 10 mg/mL 2-hydroxy-β-cyclodextrin, and 20 μM PBI-3939. The final assay concentrations of purified enzyme and substrate were 0.5 pM and 10 μM, respectively. In parallel, reactions between diluted purified firefly luciferase (i.e., QUANTILUM® Recombinant Luciferase (Promega Corp.)) and luciferin were analyzed. The assay buffer/reagent for the firefly luciferase reaction was BRIGHT-GLO™, and the final assay concentrations were 0.5 pM enzyme and 500 μM luciferin. As the buffers/reagents for each reaction were known to provide “glow” kinetics, a 15 min time point was used to collect luminescence data.

For experiment [3], the system named is cAMP response element (CRE). In words: Transcriptional reporter, forward transfection, CRE in HEK293 cells. As to conditions: 3 h; for baseline: 10 nM FSK. The format is cell-based, human. The procedure:
HEK293 cells were plated at 15,000 cells/well in six 96-well tissue culture plates. Cells were grown in 100 μL of DMEM+10% FBS+1× non-essential amino acids (NEAA) and incubated overnight at 37° C. The cells were transiently transfected with either 10 ng or 100 ng plasmid DNA/well of pGL4.29 9B8 opt, pGL4.29 9B8 opt-P, or pGL4.29. Plasmid DNA was mixed with 850 μL of OPTI-MEMO (Invitrogen) and 32.4 μL of FUGENE® HD transfection reagent (Promega Corp.) and incubated at room temperature for 10 min. Eight μL of the transfection/reporter DNA mixture was added to the appropriate wells (2 constructs/plate). Cells were incubated for 4 hrs at 37° C. The medium was replaced with OPTI-MEM®+0.5% dialyzed FBS+1×NEAA+1× sodium pyruvate+1× Penn-Strep and incubated overnight at 37° C.
A lytic reagent containing 100 mM MES pH 6.1, 1 mM CDTA, 150 mM KCl, 35 mM thiourea, 2 mM DTT, 0.25% TERGITOLO NP-9 (v/v), 0.025% MAZUO DF 204, and 20 μM PBI-3939 was added to the cells containing pGL4.29 9B8 opt or pGL4.29 9B8 opt-P and allowed to incubated for 10 min at room temperature (100 μL lytic reagent added to 100 μL cells). ONE-GLO™ assay reagent (Promega Corp.) was added to cells containing pGL4.29 and used according to the manufacturer's protocol (100 μL reagent added to 100 μL cells). Luminescence was measured on a GLOMAX® Luminometer.

The subject of experiment [4] is antioxidant response element (ARE). In words: Transcriptional reporter, reverse transfection, ARE in HEK293 cells. In kind it is cell-based, human. As to conditions: 100 ng DNA, 24 h. The protocol:
HEK293 cells were trypsinized (T75 flask, 3 mL trypsin) and resuspended in […] (approximately 8.9×10^6 total cells) in medium containing DMEM+10% FBS+1×NEAA. Each transcriptional reporter was prepared for transfection by mixing 1.2 mL OPTI-MEM®, 12 μL transcription reporter DNA (100 ng) and 36 μL FUGENE® HD transfection reagent together and incubated at room temperature for 35 min. Following incubation, 624 μL of the transfection/reporter DNA mixture was added to 12 mL of cell suspension and mixed by inversion. After mixing, 100 μL of the cell/DNA mixture was added to wells of a 96-well plate (2 constructs/plate). The cells were incubated at 37° C. for 22 hrs. Tert-butylhydroquinone (a Nrf2 stabilizer; tBHQ; 1 μM (“baseline”) or 20 μM) or sulphoraphane, (an organosulfer antioxidant known to activate Nrf2; 1 μM (“baseline”) or 20 μM) in OPTI-MEM® was added to each well and incubated at 37° C. for 24 hrs. Cells were lysed with 100 μL lytic reagent as described above for the forward transfection. Luminescence was measured on a GLOMAX® Luminometer.

Experiment [5] deals with CRE. Nature of the experiment: Transcriptional reporter, bulk transfection, CRE in HEK293 cells. In kind it is cell-based, human. As to conditions: HEK293, 10 nM FSK, 4 h. The procedure:
(§1) The transcriptional reporter containing HRE and 9B8 opt-P was used in the bulk transfection of HeLa cells
(§2) HEK293, NIH3T3, or HeLa cells were plated to a single well of a 6-well tissue culture plate the day before transfection at a density of 4.5×10^5 cells/well in 3 mL complete medium (DMEM+10% FBS+1×NEAA+1× sodium pyruvate) for HEK293 cells, 3×10^5 cells/well in 3 mL complete medium (DMEM+10% fetal calf serum (FCS)+1×NEAA+1× sodium pyruvate) for NIH3T3 cells, or 9.9×10^5 cells/well in 3 mL complete medium (DMEM+10% FBS+1×NEAA) for HeLa cells. Cells were grown overnight at 37° C.
(§3) 3,300 ng of reporter plasmid DNA in 155 μL OPTI-MEM® was mixed with 9.9 μL FUGENE® HD transfection reagent, vortexed briefly, and incubated at room temperature for 10 min. The CRE transcriptional reporters were used to transfect HEK293 and NIH3T3 cells. The HRE transcriptional reporters were used to transfect HeLa cells. The reporter mixture was added to cells and mixed by gentle rocking followed by incubation at 37° C. for 6 hrs (HEK293 and NIH3T3) or 3 hrs (HeLa). […]
(§4) FSK (CRE stimulator) or 17-AAG (HRE stimulator; 17-Allylamino-demethoxy geldanamycin) in OPTI-MEM® was added to the cells (10 nM or 10 μM final concentration for FSK; 1 nM or 1 μM final concentration for 17-AAG) and incubated at 37° C. for 4 hrs (FSK) or 6 hrs (17-AAG). […] Luminescence was measured on a GLOMAX® Luminometer.

For experiment [6], the system named is CRE. Nature of the experiment: Transcriptional reporter, bulk transfection, CRE in NIH3T3 cells. The format is cell-based. To be noted: NIH3T3, 10 nM FSK, 4 h. The procedure: as §1, §2, §3, §4
Experiment [7] deals with cAMP-response element (CRE). Nature of the experiment: cAMP transcriptional reporter in HEK293 cells. To be noted: for fold-induction: FSK 5 hrs.

B1: Luc2: a firefly luciferase (SEQ ID NOs: 28 and 29) (protein, listed as Photinus pyralis)
chain: MEDAKNIKKGPAPFYPLEDGTAGEQLHKAMKRYALVPGTIAFTDAHIEVDITYAEYFEMSVRLAEAMKRYGLNTNHRIVVCSENSLQFFMPVLGALFIGVAVAPANDIYNERELLNSMGISQPTVVFVSKKGLQKILNVQKKLPIIQKIIIMDSKTDYQGFQSMYTFVTSHLPPGFNEYDFVPESFDRDKTIALIMNSSGSTGLPKGVALPHRTACVRFSHARDPIFGNQIIPDTAILSVVPFHHGFGMFTTLGYLICGFRVVLMYRFEEELFLRSLQDYKIQSALLVPTLFSFFAKSTLIDKYDLSNLHEIASGGAPLSKEVGEAVAKRFHLPGIRQGYGLTETTSAILITPEGDDKPGAVGKVVPFFEAKVVDLDTGKTLGVNQRGELCVRGPMIMSGYVNNPEATNALIDKDGWLHSGDIAYWDEDEHFFIVDRLKSLIKYKGYQVAPAELESILLQHPNIFDAGVAGLPDDDAGELPAAVVVLEHGKTMTEKEIVDYVASQVTTAKKLRGGVVFVDEVPKGLTGKLDARKIREILIKAKKGGKIAV
As for B1, the “fold higher luminescence than hRL” value with HEK293 cells was “approximately 14 fold”.

B2: 9B8 opt: codon optimized version of the 9B8 variant (SEQ ID NO: 24) (protein)
chain: MVFTLEDFVGDWRQTAGYNLDQVLEQGGLSSLFQKLGVSVTPIQKIVLSGENGLKIDIHVIIPYEGLSGYQMGQIEKIFKVVYPVDDHHFKVILHYGTLVIDGVTPNMIDYFGRPYEGIAVFDGKKITVTGTLWNGNKIIDERLINPDGSLLFRVTINGVTGWRLCERILA
Regarding B2, the RLU in experiment [1] is 23,283,252,000 RLU. Moreover, in experiment [2], the “fold brighter than QUANTILUM Recombinant Luciferase with BRIGHT-GLO” value was “approximately 8 fold”. Moreover, in experiment [2] (0.5 pM purified enzyme, 15 min, 10 μM PBI-3939 or BRIGHT-GLO with 500 μM luciferin), the luminescence is on record as 19,200 RLU. For the same molecule, the baseline is listed as 192810 RLU in experiment [3] (10 ng DNA); 3,078,418 RLU in experiment [3] (100 ng DNA); 15,600,000 RLU in experiment [4] (1 μM sulphoraphane); 15,100,000 RLU in experiment [4] (1 μM tBHQ); 39,700,000 RLU with CRE [5]; 9,187,000 RLU with CRE [6]. Besides, the figures for the “RLU (10 µM FSK)” value in experiment [3] (10 ng DNA) and in experiment [3] (100 ng DNA) were 12,926,465 RLU and 104,687,723 RLU, respectively. The Response turned out to be 67 in experiment [3] (10 ng DNA) and 34 in experiment [3] (100 ng DNA). Besides, the “RLU (20 μM sulphoraphane)” value in experiment [4] is 89,600,000 RLU. For the same molecule, the “RLU (20 μM tBHQ)” value in experiment [4] is reported as 120,000,000 RLU. Further, the fold-induction in experiment [7] (30 ng of DNA for transfection) was found to be 360; in experiment [7] (100 ng of DNA for transfection), 109. The “induced luminescence higher than Luc2 transcriptional reporter” value in experiment [7] (FSK induced) is given as “approximately 1.5 logs”. The “induced luminescence higher than induced Renilla transcriptional reporter” value in experiment [7] (FSK induced) is “approximately 2.5 logs”.
